Results from publication PMC5179221 (2017).

Molecular target: NCoR peptide (Homo sapiens, UniProt O75376)
Test: fluorescence polarization

NCoR peptide, sequence (O75376 whole entry): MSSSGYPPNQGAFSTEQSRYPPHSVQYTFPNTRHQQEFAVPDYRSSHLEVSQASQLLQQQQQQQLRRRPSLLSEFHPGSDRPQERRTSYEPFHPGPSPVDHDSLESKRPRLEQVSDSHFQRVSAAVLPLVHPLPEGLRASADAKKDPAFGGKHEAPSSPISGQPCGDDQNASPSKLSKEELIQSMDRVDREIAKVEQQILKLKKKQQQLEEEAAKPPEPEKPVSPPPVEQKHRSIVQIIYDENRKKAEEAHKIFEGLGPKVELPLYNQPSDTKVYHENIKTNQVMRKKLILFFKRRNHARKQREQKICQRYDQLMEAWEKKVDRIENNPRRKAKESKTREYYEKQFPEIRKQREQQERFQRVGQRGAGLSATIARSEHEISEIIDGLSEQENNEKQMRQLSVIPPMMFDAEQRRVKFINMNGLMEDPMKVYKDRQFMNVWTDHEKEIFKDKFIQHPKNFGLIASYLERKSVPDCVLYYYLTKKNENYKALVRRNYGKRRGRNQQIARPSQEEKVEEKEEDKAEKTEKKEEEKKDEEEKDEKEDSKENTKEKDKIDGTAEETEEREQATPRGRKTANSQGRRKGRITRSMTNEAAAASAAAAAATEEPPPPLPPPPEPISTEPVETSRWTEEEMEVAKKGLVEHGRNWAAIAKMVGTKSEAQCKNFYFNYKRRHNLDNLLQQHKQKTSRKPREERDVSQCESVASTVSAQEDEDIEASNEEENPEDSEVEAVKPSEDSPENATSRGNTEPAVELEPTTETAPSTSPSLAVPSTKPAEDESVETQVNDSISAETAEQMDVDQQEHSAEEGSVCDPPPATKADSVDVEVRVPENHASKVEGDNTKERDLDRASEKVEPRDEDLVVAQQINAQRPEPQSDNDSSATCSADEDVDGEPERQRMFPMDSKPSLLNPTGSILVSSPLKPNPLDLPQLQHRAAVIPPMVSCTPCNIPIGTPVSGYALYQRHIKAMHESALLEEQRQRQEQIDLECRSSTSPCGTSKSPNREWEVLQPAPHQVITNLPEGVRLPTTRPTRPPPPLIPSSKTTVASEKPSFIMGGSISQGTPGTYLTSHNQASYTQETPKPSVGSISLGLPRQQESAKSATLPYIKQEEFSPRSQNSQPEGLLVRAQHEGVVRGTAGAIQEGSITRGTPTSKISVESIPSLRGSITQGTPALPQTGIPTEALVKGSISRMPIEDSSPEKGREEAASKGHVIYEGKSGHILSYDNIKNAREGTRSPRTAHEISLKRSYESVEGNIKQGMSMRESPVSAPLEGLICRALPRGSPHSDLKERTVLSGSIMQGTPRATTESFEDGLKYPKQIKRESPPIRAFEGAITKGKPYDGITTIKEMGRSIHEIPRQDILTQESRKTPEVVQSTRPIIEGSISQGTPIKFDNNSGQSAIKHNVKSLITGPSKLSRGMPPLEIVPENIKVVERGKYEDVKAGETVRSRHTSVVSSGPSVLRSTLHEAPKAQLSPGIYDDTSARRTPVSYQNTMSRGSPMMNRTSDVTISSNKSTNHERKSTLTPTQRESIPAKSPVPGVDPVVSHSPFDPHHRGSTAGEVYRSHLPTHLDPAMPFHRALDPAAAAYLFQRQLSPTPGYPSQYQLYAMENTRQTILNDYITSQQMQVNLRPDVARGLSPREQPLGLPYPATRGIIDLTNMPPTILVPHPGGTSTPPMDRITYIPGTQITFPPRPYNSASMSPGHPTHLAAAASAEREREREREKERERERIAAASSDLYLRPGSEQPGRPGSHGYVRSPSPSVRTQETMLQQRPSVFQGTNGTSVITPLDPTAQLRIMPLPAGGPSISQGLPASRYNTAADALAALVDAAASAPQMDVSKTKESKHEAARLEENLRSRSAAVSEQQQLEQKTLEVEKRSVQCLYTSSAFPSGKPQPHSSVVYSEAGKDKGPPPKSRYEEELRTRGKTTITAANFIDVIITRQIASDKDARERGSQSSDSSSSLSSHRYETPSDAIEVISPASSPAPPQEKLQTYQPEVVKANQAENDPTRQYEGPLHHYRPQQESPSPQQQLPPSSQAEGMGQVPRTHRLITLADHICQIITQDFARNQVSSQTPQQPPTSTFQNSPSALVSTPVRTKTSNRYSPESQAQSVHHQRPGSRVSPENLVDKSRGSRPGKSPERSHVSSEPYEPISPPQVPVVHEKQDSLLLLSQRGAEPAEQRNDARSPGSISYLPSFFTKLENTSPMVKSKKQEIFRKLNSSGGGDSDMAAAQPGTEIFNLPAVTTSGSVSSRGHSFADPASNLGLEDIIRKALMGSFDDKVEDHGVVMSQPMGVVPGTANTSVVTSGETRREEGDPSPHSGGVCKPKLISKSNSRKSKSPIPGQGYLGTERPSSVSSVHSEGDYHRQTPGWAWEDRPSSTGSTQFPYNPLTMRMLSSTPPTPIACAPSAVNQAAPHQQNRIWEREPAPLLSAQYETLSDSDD

Kd: 1400 nM
B1: PPARγ LBD LBD (protein)
chain: DLRALAKHLYDSYIKSFPLTKAKARAILTGKTTDKSPFVIYDMNSLMMGEDKIKFKHITPLQEQSKEVAIRIFQGCQFRSVEAVQEITEYAKSIPGFVNLDLNDQVTLLKYGVHEIIYTMLASLMNKDGVLISEGQGFMTREFLKSLRKPFGDFMEPKFEFAVKFNALELDDSDLAIFIAVIILSGDRPGLLNVKPIEDIQDNLLQALELQLKLNHPESSQLFAKLLQKMTDLRQIVTEHVQLLQVIKKTETDMSLHPLLQEIYKD
